Experimental data from US20190367612A1 (Daiichi Sankyo, published 2019).
Bridge positions count the residues as written; N and C are the ends. Ends that are not written are not given here. * marks the point of attachment. Biotin = O=C1N[C@H]2[C@H](CS[C@H]2CCCCC(=O)*)N1

T1: amino-terminal peptide of cynomolgus monkey GPRC5D …(Biotin)-NH2 (cynomolgus monkey, C-terminal lysine carrying biotin, C-terminal amide)
T1 construct: also called amino-terminal peptide of biotinylated cynomolgus monkey GPRC5D
T1 peptide: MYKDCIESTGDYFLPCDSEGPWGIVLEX

B1: human GPRC5D amino-terminal peptide …(Biotin)-NH2, lacking an intramolecular disulfide bond (peptide)
peptide: MYKDCIESTGDYFLLCDAEGPWGIILE(Biotin)-NH2
modifications: cysteine pairing not given here
notes: Sigma-Aldrich synthetic peptide; also called amino-terminal peptide of human GPRC5D (disulfide bond absent)
B2: human GPRC5D amino-terminal peptide MYKDCIESTGDYFLLCDAEGPWGIILE-K(Biotin)-NH2, having an intramolecular disulfide bond (peptide)
peptide: MYKDCIESTGDYFLLCDAEGPWGIILEK(Biotin)-NH2
modifications: disulfide 5-16 (inferred)
notes: Peptide Institute synthetic peptide; also called amino-terminal peptide of biotinylated human GPRC5D (disulfide bond present)
B3: human antibody C3048 scFv (scFv)
scFv: QVQLVQSGAEVKKPGSSVKVSCKASGGTFSRYAISWVRQAPGQGLEWMGGIIPIFGTANYAQKFQGRVTITADQSTRTAYMDLGRLRSEDTAVYYCALEGFRDSLKRNPFDIWGQGTMVTVSSGGGGSGGGGSGGGGSQSVVTQPPSVSAAPGQKVTISCSGGTTNIGSNYVSWYQQLPGTAPKFLMYENNKRPSGIPDRFSGSKSGTSATLAITGLQTGDEATYYCSTWDSSLNTGLFGGGTKLTVL
notes: also called C3048 antibody scFv; not shown: FLAG and His tags at the carboxyl terminus
B4: rat anti-GPRC5D antibody 2B1 (antibody, V domains shown)
VH: QVTLKESGPGILQPSQTLSLTCTFSGFSLNTYDMGVGWIRQPSGKGLEWLANIWWDDDKYYNPSLRNRLTISKDTSNNQAFLKITNVDTADTATYYCARIETVRVSRKGFAHWGQGTLVTVSS
VL: ETVMTQSPTSMSTSIGERVTLNCKASQSVGINVDWYQQTPGQSPKLLIYGASNRHTGVPDRFTGSGFGRDFTLTISNVEAEDLAVYYCLQHGSIPPTFGGGTKLELK
notes: Rat IgG2b, kappa chain

Columns and labels:
[1] = molecular target: T2, rat anti-GPRC5D antibody 2A4; assay: flow cytometry competition on KMS-34 cells: the peptide without the intramolecular disulfide bond is added together with a fixed amount of 2A4; readout: binding of 2A4 to human GPRC5D on the cells
T2 construct: Rat IgG2b, kappa chain
T2 sequence (VH, as listed by the source, chain 1 of 2): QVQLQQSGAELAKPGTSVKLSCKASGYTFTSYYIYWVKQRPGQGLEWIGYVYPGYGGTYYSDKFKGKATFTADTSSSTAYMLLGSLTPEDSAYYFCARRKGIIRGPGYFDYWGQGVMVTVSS
T2 sequence (VL, as listed by the source, chain 2 of 2): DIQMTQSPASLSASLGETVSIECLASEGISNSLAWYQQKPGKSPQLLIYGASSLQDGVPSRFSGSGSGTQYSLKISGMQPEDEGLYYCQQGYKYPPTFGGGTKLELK
Procedure: (§1) Human multiple myeloma cell line KMS-34 cells expressing GPRC5D were adjusted to a concentration of 2×10⁶ cells/mL with PBS containing 5% FBS, inoculated in an amount of 100 μL/well to a 96-well U-bottomed microplate, and centrifuged to remove a supernatant. Each rat anti-GPRC5D antibody (2A4, 2B1, and 7B4) adjusted to 7.5 μg/mL in Example 1)-7, or Rat IgG2b isotype control antibody (Medical & Biological Laboratories Co., Ltd. (MBL)) was added thereto in an amount of 100 μL/well. The two types of peptides used in Example 2)-2-1 were each adjusted to 17 ng/mL to 34 μg/mL with PBS and added in an amount of 100 μL/well to the wells containing the antibody dilution, and the plate was left standing at 4° C. for 1 hour. The cells were washed twice with PBS containing 5% FBS. Then, PE Goat Anti-Rat Ab (Becton, Dickinson and Company) diluted 100-fold with PBS containing 5% FBS was added thereto in an amount of 100 μL/well, and the plate was left standing at 4° C. for 1 hour. The cells were washed twice with PBS containing 5% FBS and then resuspended in PBS containing 5% FBS, followed by detection using a flow cytometer (FACSCanto™ II; Becton, Dickinson and Company). The data was analyzed using Flowjo (Tree Star, Inc.). The PE fluorescence intensity of the cell fraction was plotted to a histogram, and the mean fluorescence intensity (MFI) was calculated. […]

[2] = molecular target: B4; assay: flow cytometry competition on KMS-34 cells: the peptide without the intramolecular disulfide bond is added together with a fixed amount of 2B1; blocked: binding of 2B1 to human GPRC5D on the cells
Procedure: as §1

[3] = molecular target: T3, rat anti-GPRC5D antibody 7B4; assay: flow cytometry competition on KMS-34 cells: the peptide without the intramolecular disulfide bond is added together with a fixed amount of 7B4; readout: binding of 7B4 to human GPRC5D on the cells
T3 construct: Rat IgG2b, kappa chain
T3 sequence (VH, as listed by the source, chain 1 of 2): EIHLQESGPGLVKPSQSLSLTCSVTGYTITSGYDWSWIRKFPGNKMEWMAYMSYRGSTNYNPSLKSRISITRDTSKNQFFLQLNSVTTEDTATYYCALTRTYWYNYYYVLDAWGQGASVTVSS
T3 sequence (VL, as listed by the source, chain 2 of 2): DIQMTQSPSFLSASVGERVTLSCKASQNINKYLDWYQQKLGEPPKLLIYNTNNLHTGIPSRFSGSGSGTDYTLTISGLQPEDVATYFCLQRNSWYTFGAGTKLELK
Procedure: as §1

[4] = molecular target: T2, rat anti-GPRC5D antibody 2A4; assay: flow cytometry competition on KMS-34 cells: the peptide with the intramolecular disulfide bond is added together with a fixed amount of 2A4; readout: binding of 2A4 to human GPRC5D on the cells
Procedure: as §1

[5] = molecular target: B4; assay: flow cytometry competition on KMS-34 cells: the peptide with the intramolecular disulfide bond is added together with a fixed amount of 2B1; blocked: binding of 2B1 to human GPRC5D on the cells
Procedure: as §1

[6] = molecular target: T3, rat anti-GPRC5D antibody 7B4; assay: flow cytometry competition on KMS-34 cells: the peptide with the intramolecular disulfide bond is added together with a fixed amount of 7B4; readout: binding of 7B4 to human GPRC5D on the cells
Procedure: as §1

human GPRC5D [7] = molecular target: T4, human GPRC5D (human, UniProt Q9NZD1 1-345); assay: flow cytometry on KMS-34 cells (endogenous human GPRC5D), anti-FLAG antibody and Alexa 488 anti-mouse IgG detection
T4 construct: whole, on cells; also called hGPRC5D; G-protein coupled receptor family C group 5 member D
Procedure: The KMS-34 cells were recovered by centrifugation, washed twice with a FACS buffer (PBS containing 0.5% BSA and 2 mM EDTA, pH 7.4), and then suspended in the same solution as above. The C2037, C3048, C3015 or C3022 scFv was added to the obtained cell suspension, and the mixture was left standing at 4° C. for 2 hours. After washing twice with a FACS buffer, the cells were suspended by the addition of an anti-FLAG antibody (Sigma-Aldrich Corp.), and the mixture was further left standing at 4° C. for 1 hour. After washing twice with a FACS buffer, the cells were suspended by the addition of Alexa 488-labeled anti-mouse IgG antibody (Jackson ImmunoResearch Laboratories, Inc.), and the mixture was further left standing at 4° C. for 1 hour. After washing twice with a FACS buffer, the cells were fixed in 1% PFA (prepared from a 32% paraformaldehyde solution (Electron Microscopy Sciences)), followed by detection using a flow cytometer (FACSCanto™ II; Becton, Dickinson and Company). The data was analyzed using Flowjo (Tree Star, Inc.).

[8] = molecular target: B2; assay: SPR (Biacore T200), kinetic analysis: biotinylated amino-terminal peptide of human GPRC5D on Sensor Chip CAP, scFv as analyte
Procedure: The binding activity of the anti-GPRC5D antibodies against the amino-terminal peptide of human GPRC5D was tested by SPR using Biacore T200. The amino-terminal peptide of biotinylated human GPRC5D diluted to 2 nM with HBS-EP+ (manufactured by GE Healthcare Bio-Sciences Corp.) was immobilized on Sensor Chip CAP (manufactured by GE Healthcare Bio-Sciences Corp.) by contact at a rate of 10 μL/min for 180 seconds. Then, Kd was calculated by kinetic analysis using a plurality of concentrations of each scFv diluted with HBS-EP+ as analytes.

[9] = molecular target: B2; assay: ELISA, chemiluminescence: biotinylated amino-terminal peptide of human GPRC5D on NeutrAvidin, scFv detected with HRP anti-FLAG antibody
Procedure: (§2) NeutrAvidin diluted to 1 μg/mL with PBS was added in an amount of 50 μL/well to 96-well Maxi-sorp plate (Black, Nunc/Thermo Fisher Scientific Inc.), and the plate was left standing overnight at 4° C. for immobilization. After washing three times with an ELISA buffer, the amino-terminal peptide of the biotinylated human or cynomolgus monkey GPRC5D (used in Example 10)-1) diluted to 1 μg/mL with PBS was added thereto, and the plate was shaken at room temperature for 1 hour. After washing three times with an ELISA buffer, the plate was blocked with Blocker Casein and washed three times with an ELISA buffer. Then, the C2037, C3048, C3015, or C3022 scFv was added to the plate and reacted at room temperature for 2 hours. After washing three times with an ELISA buffer, a horseradish peroxidase (HRP)-labeled anti-FLAG antibody diluted 5000-fold with an ELISA buffer was added thereto in an amount of 50 μL/well and reacted at room temperature for 1 hour. After washing five times with an ELISA buffer, SuperSignal Pico ELISA Chemiluminescent substrate was added. After 10 minutes, the chemiluminescence was measured using a plate reader.

[10] = molecular target: T1, amino-terminal peptide of cynomolgus …; assay: ELISA, chemiluminescence: biotinylated amino-terminal peptide of cynomolgus monkey GPRC5D on NeutrAvidin, scFv detected with HRP anti-FLAG antibody
Procedure: as §2

human GPRC5D [11] = molecular target: T4, human GPRC5D; assay: flow cytometry, KHM-1B cells
Procedure: Human multiple myeloma cell line KHM-1B cells (JCRB Cell Bank) expressing GPRC5D were adjusted to a concentration of 5×10⁶ cells/mL with PBS containing 5% FBS, inoculated in an amount of 100 μL/well to a 96-well U-bottomed microplate, and centrifuged to remove a supernatant. Each rat anti-GPRC5D antibody (2A4, 2B1, and 7B4) adjusted to 0.32 ng/mL to 10 μg/mL in Example 1)-7 was added thereto in an amount of 100 μL/well, and the plate was left standing at 4° C. for 1 hour. The cells were washed twice with PBS containing 5% FBS. Then, PE Goat Anti-Rat Ab (Becton, Dickinson and Company) diluted 100-fold with PBS containing 5% FBS was added thereto at a concentration of 100 μL/well, and the plate was left standing at 4° C. for 1 hour. The cells were washed twice with PBS containing 5% FBS and then resuspended in PBS containing 5% FBS, followed by detection using a flow cytometer (FACSCanto™ II; Becton, Dickinson and Company). The data was analyzed using Flowjo (Tree Star, Inc.). The PE fluorescence intensity of the cell fraction was plotted to a histogram, and the mean fluorescence intensity (MFI) was calculated.

human GPRC5D [12] = molecular target: T4, human GPRC5D; assay: flow cytometry, KMS-34 cells
[13] = molecular target: B2; assay: ELISA, immobilised biotinylated peptide with disulfide bond
Excerpt: (§3) Epitopes bound by the obtained rat anti-GPRC5D antibodies (2A4, 2B1, and 7B4) were identified using a human GPRC5D amino-terminal peptide […](Biotin)-NH₂ (Sigma-Aldrich Corp.) (SEQ ID NO: 1 of the Sequence Listing; FIG. 2) having a biotinylated carboxy-terminal peptide and lacking an intramolecularly formed disulfide bond, and a human GPRC5D amino-terminal peptide […]-K(Biotin)-NH₂ (Peptide Institute, Inc.) (SEQ ID NO: 2 of the Sequence Listing; FIG. 3) having a lysine-containing biotinylated carboxy terminus and having an intramolecularly formed disulfide bond. Each peptide diluted with PBS was added to Nunc Immobilizer (Thermo Fisher Scientific Inc.), and the plate was left standing at room temperature for 1 hour. After washing three times with PBST, […] containing 1% BSA was added thereto, and the plate was left standing at room temperature for 1 hour. After washing three times with PBST, each rat anti-GPRC5D antibody (2A4, 2B1, and 7B4) prepared in Example 1)-7 and diluted to 0.1 ng/mL to 1 μg/mL with PBS was added thereto, and the plate was left standing at room temperature for 1 hour. […] After washing three times with PBST, SuperSignal™ ELISA Pico Chemiluminescent Substrate (Thermo Fisher Scientific Inc.) was added thereto, and the luminescence was measured using a plate reader (ENVISION; PerkinElmer, Inc.).

[14] = molecular target: B1; assay: ELISA, immobilised biotinylated peptide without disulfide bond
Excerpt: as §3

Binder: B1
binding result [1]: no binding (tested: 5000 nM)
IC50 (read off the curve) [2]: ~50 nM
binding result [3]: no binding (tested: 5000 nM)

Binder: B2
binding result [4]: no binding (tested: 5000 nM)
IC50 (read off the curve) [5]: ~50 nM
binding result [6]: no binding (tested: 5000 nM)

Binder: B3
EC50 (read off the curve) (human GPRC5D [7]): ~10 nM
Kd [8]: 0.36 nM
EC50 (read off the curve) [9]: ~3 nM
binding result [10]: binds

Binder: B4
Kd (human GPRC5D [11]): 14.8 nM
MFI (max) (human GPRC5D [11]): 2390
Kd (human GPRC5D [12]): 12.7 nM
MFI (max) (human GPRC5D [12]): 3160
binding result [13]: binds
binding result [14]: binds
